The source of these data is paper PMC10786891, “Massively parallel profiling of RNA-targeting CRISPR-Cas13d”.

First the molecules themselves.
B1: target 2 MT 5'PFS GCU 3'PFS UCG (mixed)
RNA 1: CACCCGUGCAAAAUUGCAGGGGUCUAAAACCUUCUCCAAAUUGUUUCAUCCU
RNA 2: GGGAAUGGAUCCACAUCUACGAAUUCGCUAGGAUGAAACAAUUUGGAGAAGUCGAGAUCGGAAGAGCACACGU
B2: target 2 MT 5'PFS AUU 3'PFS UUA (mixed)
RNA 1: CACCCGUGCAAAAUUGCAGGGGUCUAAAACCUUCUCCAAAUUGUUUCAUCCU
RNA 2: GGGAAUGGAUCCACAUCUACGAAUUCAUUAGGAUGAAACAAUUUGGAGAAGUUAAGAUCGGAAGAGCACACGU
B3: target 2 MT 5'PFS AGU 3'PFS CUU (mixed)
RNA 1: CACCCGUGCAAAAUUGCAGGGGUCUAAAACCUUCUCCAAAUUGUUUCAUCCU
RNA 2: GGGAAUGGAUCCACAUCUACGAAUUCAGUAGGAUGAAACAAUUUGGAGAAGCUUAGAUCGGAAGAGCACACGU
B4: target 2 MT 5'PFS AUC 3'PFS CGA (mixed)
RNA 1: CACCCGUGCAAAAUUGCAGGGGUCUAAAACCUUCUCCAAAUUGUUUCAUCCU
RNA 2: GGGAAUGGAUCCACAUCUACGAAUUCAUCAGGAUGAAACAAUUUGGAGAAGCGAAGAUCGGAAGAGCACACGU
B5: target 2 MT 5'PFS AUA 3'PFS CGA (mixed)
RNA 1: CACCCGUGCAAAAUUGCAGGGGUCUAAAACCUUCUCCAAAUUGUUUCAUCCU
RNA 2: GGGAAUGGAUCCACAUCUACGAAUUCAUAAGGAUGAAACAAUUUGGAGAAGCGAAGAUCGGAAGAGCACACGU
B6: target 2 MT 5'PFS GUC 3'PFS UUC (mixed)
RNA 1: CACCCGUGCAAAAUUGCAGGGGUCUAAAACCUUCUCCAAAUUGUUUCAUCCU
RNA 2: GGGAAUGGAUCCACAUCUACGAAUUCGUCAGGAUGAAACAAUUUGGAGAAGUUCAGAUCGGAAGAGCACACGU
B7: target 2 MT 5'PFS UUA 3'PFS UAG (mixed)
RNA 1: CACCCGUGCAAAAUUGCAGGGGUCUAAAACCUUCUCCAAAUUGUUUCAUCCU
RNA 2: GGGAAUGGAUCCACAUCUACGAAUUCUUAAGGAUGAAACAAUUUGGAGAAGUAGAGAUCGGAAGAGCACACGU
B8: target 2 MT 5'PFS CGA 3'PFS CGC (mixed)
RNA 1: CACCCGUGCAAAAUUGCAGGGGUCUAAAACCUUCUCCAAAUUGUUUCAUCCU
RNA 2: GGGAAUGGAUCCACAUCUACGAAUUCCGAAGGAUGAAACAAUUUGGAGAAGCGCAGAUCGGAAGAGCACACGU
B9: target 2 MT 5'PFS GUC 3'PFS UUU (mixed)
RNA 1: CACCCGUGCAAAAUUGCAGGGGUCUAAAACCUUCUCCAAAUUGUUUCAUCCU
RNA 2: GGGAAUGGAUCCACAUCUACGAAUUCGUCAGGAUGAAACAAUUUGGAGAAGUUUAGAUCGGAAGAGCACACGU
B10: target 2 MT 5'PFS CAU 3'PFS UGC (mixed)
RNA 1: CACCCGUGCAAAAUUGCAGGGGUCUAAAACCUUCUCCAAAUUGUUUCAUCCU
RNA 2: GGGAAUGGAUCCACAUCUACGAAUUCCAUAGGAUGAAACAAUUUGGAGAAGUGCAGAUCGGAAGAGCACACGU
B11: target 2 MT 5'PFS CAU 3'PFS UGA (mixed)
RNA 1: CACCCGUGCAAAAUUGCAGGGGUCUAAAACCUUCUCCAAAUUGUUUCAUCCU
RNA 2: GGGAAUGGAUCCACAUCUACGAAUUCCAUAGGAUGAAACAAUUUGGAGAAGUGAAGAUCGGAAGAGCACACGU
B12: target 2 MT 5'PFS GUC 3'PFS UUA (mixed)
RNA 1: CACCCGUGCAAAAUUGCAGGGGUCUAAAACCUUCUCCAAAUUGUUUCAUCCU
RNA 2: GGGAAUGGAUCCACAUCUACGAAUUCGUCAGGAUGAAACAAUUUGGAGAAGUUAAGAUCGGAAGAGCACACGU
B13: target 2 MT 5'PFS CUC 3'PFS UCG (mixed)
RNA 1: CACCCGUGCAAAAUUGCAGGGGUCUAAAACCUUCUCCAAAUUGUUUCAUCCU
RNA 2: GGGAAUGGAUCCACAUCUACGAAUUCCUCAGGAUGAAACAAUUUGGAGAAGUCGAGAUCGGAAGAGCACACGU
B14: target 2 MT 5'PFS CGA 3'PFS CGA (mixed)
RNA 1: CACCCGUGCAAAAUUGCAGGGGUCUAAAACCUUCUCCAAAUUGUUUCAUCCU
RNA 2: GGGAAUGGAUCCACAUCUACGAAUUCCGAAGGAUGAAACAAUUUGGAGAAGCGAAGAUCGGAAGAGCACACGU
B15: target 2 MT 5'PFS CAU 3'PFS UGU (mixed)
RNA 1: CACCCGUGCAAAAUUGCAGGGGUCUAAAACCUUCUCCAAAUUGUUUCAUCCU
RNA 2: GGGAAUGGAUCCACAUCUACGAAUUCCAUAGGAUGAAACAAUUUGGAGAAGUGUAGAUCGGAAGAGCACACGU
B16: target 2 MT 5'PFS GCU 3'PFS UCU (mixed)
RNA 1: CACCCGUGCAAAAUUGCAGGGGUCUAAAACCUUCUCCAAAUUGUUUCAUCCU
RNA 2: GGGAAUGGAUCCACAUCUACGAAUUCGCUAGGAUGAAACAAUUUGGAGAAGUCUAGAUCGGAAGAGCACACGU
B17: target 2 MT 5'PFS GGC 3'PFS UGU (mixed)
RNA 1: CACCCGUGCAAAAUUGCAGGGGUCUAAAACCUUCUCCAAAUUGUUUCAUCCU
RNA 2: GGGAAUGGAUCCACAUCUACGAAUUCGGCAGGAUGAAACAAUUUGGAGAAGUGUAGAUCGGAAGAGCACACGU
B18: target 2 MT 5'PFS CCC 3'PFS UCC (mixed)
RNA 1: CACCCGUGCAAAAUUGCAGGGGUCUAAAACCUUCUCCAAAUUGUUUCAUCCU
RNA 2: GGGAAUGGAUCCACAUCUACGAAUUCCCCAGGAUGAAACAAUUUGGAGAAGUCCAGAUCGGAAGAGCACACGU
B19: target 2 MT 5'PFS GGC 3'PFS UGA (mixed)
RNA 1: CACCCGUGCAAAAUUGCAGGGGUCUAAAACCUUCUCCAAAUUGUUUCAUCCU
RNA 2: GGGAAUGGAUCCACAUCUACGAAUUCGGCAGGAUGAAACAAUUUGGAGAAGUGAAGAUCGGAAGAGCACACGU
B20: target 2 MT 5'PFS UUA 3'PFS UAU (mixed)
RNA 1: CACCCGUGCAAAAUUGCAGGGGUCUAAAACCUUCUCCAAAUUGUUUCAUCCU
RNA 2: GGGAAUGGAUCCACAUCUACGAAUUCUUAAGGAUGAAACAAUUUGGAGAAGUAUAGAUCGGAAGAGCACACGU
B21: target 2 MT 5'PFS AUA 3'PFS CGC (mixed)
RNA 1: CACCCGUGCAAAAUUGCAGGGGUCUAAAACCUUCUCCAAAUUGUUUCAUCCU
RNA 2: GGGAAUGGAUCCACAUCUACGAAUUCAUAAGGAUGAAACAAUUUGGAGAAGCGCAGAUCGGAAGAGCACACGU
B22: target 1 insG 3' of 2,insG 3' of 2 (mixed)
RNA 1: CACCCGUGCAAAAAUGCAGGGGUCUAAAACUGAGCGGAUAACCUCUCUAUGG
RNA 2: GGGAAUGGAUCCACAUCUACGAAUUCGUACCAUAGAGAGGUUAUCCGCUCGGACCGAGAUCGGAAGAGCACACGU
B23: target 1 insG 3' of 1,insU 3' of 1 (mixed)
RNA 1: CACCCGUGCAAAAAUGCAGGGGUCUAAAACUGAGCGGAUAACCUCUCUAUGG
RNA 2: GGGAAUGGAUCCACAUCUACGAAUUCGUACCAUAGAGAGGUUAUCCGCUCAGUCCGAGAUCGGAAGAGCACACGU

The target of the data set is T1, EsCas13d, nuclease-dead (Eubacterium siraeum, UniProt B0MS50, R295A;H300A;R849A;H854A).
T1 sequence: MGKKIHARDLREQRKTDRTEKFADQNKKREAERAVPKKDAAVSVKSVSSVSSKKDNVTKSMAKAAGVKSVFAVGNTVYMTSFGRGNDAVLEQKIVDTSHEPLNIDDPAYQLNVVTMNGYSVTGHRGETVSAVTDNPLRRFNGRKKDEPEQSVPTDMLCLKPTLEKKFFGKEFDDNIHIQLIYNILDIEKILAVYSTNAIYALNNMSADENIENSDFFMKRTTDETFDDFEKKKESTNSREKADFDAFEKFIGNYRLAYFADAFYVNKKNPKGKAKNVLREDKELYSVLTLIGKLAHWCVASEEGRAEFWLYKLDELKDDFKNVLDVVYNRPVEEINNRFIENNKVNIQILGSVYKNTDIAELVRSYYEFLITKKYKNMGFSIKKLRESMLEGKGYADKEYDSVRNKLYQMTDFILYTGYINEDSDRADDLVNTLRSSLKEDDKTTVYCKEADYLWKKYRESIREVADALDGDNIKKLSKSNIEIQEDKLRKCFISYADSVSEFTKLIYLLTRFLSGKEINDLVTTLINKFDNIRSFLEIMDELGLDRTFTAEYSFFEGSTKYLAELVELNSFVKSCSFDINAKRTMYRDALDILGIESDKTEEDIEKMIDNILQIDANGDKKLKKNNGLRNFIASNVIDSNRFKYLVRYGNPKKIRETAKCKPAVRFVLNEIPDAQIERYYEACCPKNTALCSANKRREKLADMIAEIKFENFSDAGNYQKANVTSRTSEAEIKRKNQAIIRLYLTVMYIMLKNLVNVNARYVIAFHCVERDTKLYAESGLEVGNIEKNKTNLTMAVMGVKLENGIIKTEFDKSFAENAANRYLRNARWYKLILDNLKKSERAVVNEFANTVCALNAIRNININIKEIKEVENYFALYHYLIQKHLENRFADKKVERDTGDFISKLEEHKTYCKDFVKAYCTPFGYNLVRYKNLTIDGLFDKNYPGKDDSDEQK
Description: crRNA (strand 1, pre-loaded); Mg2+; 40 mM Tris-HCl pH 7.5, 150 mM NaCl, 6 mM MgCl2, 1 mM DTT, 0.1% Tween-20, 0.2 mg/ml BSA; 25 C; 10 min per concentration, then washed. Conditions: tags: His6-TwinStrep-SUMO cleaved; N-terminal SNAP kept (SNAP-Surface 488); label: 3' end held by stalled T7 RNA polymerase.
Consider B1, for which the affinity, expressed as Kd, was 18 ± 4 nM.

As for B2, the affinity, expressed as Kd, was 13.5 ± 2.1 nM.

Consider B3, for which the Kd (commonly the constant that tells how readily two partners part at equilibrium) is 24 ± 8 nM.

B4 showed a Kd of 61 ± 20 nM.

The molecule B5 came in with a Kd of 9.5 ± 2.1 nM.

In turn, B6 gave a Kd of approximately 47 nM.

B7 showed a Kd of 22 ± 5 nM.

Molecule B8 yielded a Kd of 5.6 ± 1.5 nM.

For B9, the Kd is 58 ± 15 nM.

The molecule B10 yielded a Kd of 3.1 ± 0.5 nM.

In the case of B11, the Kd came to 4.5 ± 1.4 nM.

As for B12, the Kd worked out at 31 ± 6 nM.

On to B13, for which the affinity, expressed as Kd, was 4 ± 0.8 nM.

In turn, B14 had a Kd of 5.3 ± 1 nM.

B15 came in with a Kd of 4.4 ± 0.5 nM.

Molecule B16 displayed a Kd of 34 ± 11 nM.

The molecule B17 came in with a Kd of 27.8 ± 3.5 nM.

Regarding B18, binding was characterised by a dissociation constant (Kd) of 2.1 ± 0.5 nM.

On to B19, for which the Kd worked out at 18 ± 4 nM.

For the molecule B20, the Kd stood at 15.9 ± 2.4 nM.

B21 came in with a Kd of 7.8 ± 0.8 nM.

Molecule B22 gave a Kd of 7.5 ± 0.5 nM.

With B23, the Kd was determined as 10.5 ± 1.2 nM.
